Assay results from the supplement of paper PMC10126150.
± gives the standard deviation of the averaged measurements.

Tested on: ATP
Experiment: switch fluorescence ratio, 500 uM ATP over buffer (Cy3 cluster intensity, sum of 5 cycles each) (fold (ratio)); higher = stronger signal-on switching upon ATP binding; sequences stand for … in TCGTCGGCAGCGTCAGATGTGTATAAGAGACAGTTTTTTTTTTTTTTTTTTTTTTTTT…TC
Settings: aptamer strand: ATP DNA aptamer (quencher-CACCTGGGGGAGTATTGCGGAGGAAGG + anchor), 100 nM annealed; ATP concentration: 500 uM
Method in brief: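 Clusters with intensities outside 100-1000 RFU were excluded. The remaining Cy3-labelled switching-strand clusters on a modified Illumina MiSeq flow-cell had been annealed to 100 nM quencher-labelled ATP aptamer and imaged in selection buffer, then after 15 min with 500 uM ATP at 22 °C, for five cycles separated by NaOH stripping and re-annealing. The fluorescence ratio, averaged per switch-domain sequence, is each cluster's summed target-cycle Cy3 intensity over its summed buffer-cycle Cy3 intensity.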
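Further: ATP exposure 15 min at 22 °C before imaging.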

Sequence | switch fluorescence ratio
AACGGGGTTA | 1.04 ± 0.06
GAAGCGTCGT | 0.983 ± 0.063
GGGACGGGTA | 1.008 ± 0.0015
AGGGGAATTA | 1.026 ± 0.0047
CGTTGCTACA | 1.01 ± 0.019
CTGATGTCGC | 1.074 ± 0.0034
GAACCGCGTA | 1.11 ± 0.036
AAGGGGATAA | 0.99 ± 0.045
TTTTACTTGC | 1.0115 ± 0.00074
TAACGGTTG | 0.98 ± 0.017
GGTGCGACTC | 1.04 ± 0.05
ATGTTAGACT | 1.021 ± 0.0071
GTTTCCGTTG | 0.98414 ± 0.00058
TGTTGAGCAA | 1.6 ± 0.013
AGGGGTTGGC | 0.958 ± 0.056
TAGCACGGCA | 1.06 ± 0.029
CGGTAACTAT | 1.02 ± 0.017
AGGTTAAGAC | 0.99 ± 0.044
GGCAGGGGTG | 1.11 ± 0.015
TTGGGGGGGG | 1.01 ± 0.056
GGGGTATACC | 0.956 ± 0.021
AAGGTTTAAA | 0.982 ± 0.032
AGATCAAGAG | 0.974 ± 0.04
GCTAACACGG | 1.048 ± 0.0053
TTTTGTACAT | 0.99 ± 0.039

Sequence | switch fluorescence ratio
GAAATGGGAG | 0.998 ± 0.045
GGCGCCTGGG | 0.9875 ± 0.0033
TTTTTAACTT | 0.995 ± 0.022
TAGTGAGGGG | 0.979 ± 0.031
CGTAATTTTA | 1.01 ± 0.027
AGTAGGGGTG | 1.01 ± 0.032
AGTAAGGGTT | 1 ± 0.048
TTTGGGAAGT | 1 ± 0.025
TCGCCATTGT | 1.02 ± 0.03
GGGGGGTCTG | 1 ± 0.037
TTGGCTTTGA | 0.9893 ± 0.0097
CGGGAAATCC | 1.042 ± 0.0085
ACCAGGGGGA | 1.01 ± 0.023
CTCGGCTGTA | 1.08 ± 0.019
AAGGCCGGCG | 1.01 ± 0.017
AAAAAAGGTG | 1.16 ± 0.22
GGGCCCTGTT | 1.03 ± 0.021
TAAAAAAGAG | 0.98 ± 0.03
CTTCTTAGTT | 0.976 ± 0.019
TTGACGTTTC | 1.02 ± 0.033
AAGTGGGTGG | 1.02 ± 0.021
TGGGATTATC | 1.02 ± 0.027
CATAAGGGTT | 1.13 ± 0.17
TTGATTTTTA | 0.99 ± 0.044
GGGTCGCGCC | 1.01 ± 0.046

Sequence | switch fluorescence ratio
CTATTCGGGG | 0.981 ± 0.01
TCGGGTCTGT | 0.979 ± 0.025
TAGGTTAAAG | 1.01 ± 0.027
ATTATGAAAG | 0.969 ± 0.056
ATTCGGGTTG | 0.985 ± 0.029
ATAATGTATC | 1.03 ± 0.018
GAAAGAGAGG | 1.003 ± 0.0076
TAGAGATGGG | 1.02 ± 0.028
ATAGTGGAGG | 1.01 ± 0.025
GTAGTAAAGG | 0.9867 ± 0.0034
ATGAGGGATT | 0.965 ± 0.011
CTCAGTAATT | 1.38 ± 0.046
AATAGTATAG | 0.966 ± 0.02
AATCTGGGTA | 0.991 ± 0.016
AAAGGTTTGG | 0.976 ± 0.035
AGAGGTCTAC | 0.982 ± 0.031
TTGGTTTCCC | 1.01 ± 0.02
AGTAGGGCAG | 0.9976 ± 0.006
TTAAAAGGGG | 1.01 ± 0.044
GACCGGCATG | 1.01 ± 0.024
TTTAGGTATG | 0.987 ± 0.03
CATTATGCGG | 1 ± 0.025
ACAGCGGATG | 1.028 ± 0.0095
CCAAATGCGA | 1.97 ± 0.068
GCTGGGAGAG | 0.989 ± 0.042

Sequence | switch fluorescence ratio
CGTTTTTGCC | 1.0037 ± 0.00025
GTGGTGGGTC | 0.975 ± 0.026
AGGGGGAATA | 1.02 ± 0.011
TGTAGGGGGT | 1.01 ± 0.041
TATTTCTGCT | 1.04 ± 0.033
CTTACTGCAT | 1.27 ± 0.068
AAAAAAAAAT | 1.04 ± 0.03
CCTAGCGGTT | 1.1459 ± 0.00038
TACTTGTAAT | 1.02 ± 0.055
GGGGGAGATG | 0.992 ± 0.028
AAGATCATGG | 0.98235 ± 0.00028
TCGCTATAGC | 1.02 ± 0.067
ATTAAGGGGG | 0.9982 ± 0.0069
GCGTATACGG | 1.01 ± 0.028
TTGACCCGGT | 1.06 ± 0.085
CGGTTGTGAC | 0.994 ± 0.027
GCGAATGTTT | 0.9812 ± 0.0029
TAGGATATGG | 1 ± 0.017
GGTTGGAGGC | 1.03 ± 0.067
CAGATTATTT | 0.99 ± 0.015
AATTTGGGGA | 0.968 ± 0.013
AAAGTCTACA | 1.03 ± 0.024
AGATTAGGGG | 1.04 ± 0.041
CCCGGAAGTG | 1.24 ± 0.018
GTTTAAGGGG | 1.005 ± 0.0068

Sequence | switch fluorescence ratio
TTTGTAAGTG | 0.988 ± 0.018
AATTTTTTGG | 1 ± 0.046
TGCCTGGCTG | 0.99 ± 0.05
AGATTTTTGA | 0.942 ± 0.069
GGTACTGGGG | 1.06 ± 0.015
GGGTGCGGTT | 1.011 ± 0.01
TTATTTAGGT | 1.01 ± 0.043
TGACGAGCGG | 1.04 ± 0.061
AGTCTTTTTT | 1 ± 0.0038
TTTTAATTAA | 1.01 ± 0.044
ATCGGACGGG | 1.02 ± 0.016
TTGGGGTCCA | 0.977 ± 0.015
CACGTTAGTT | 1.06 ± 0.06
ACGTCAAAGG | 1.37 ± 0.51
CGTCTCTTAG | 0.995 ± 0.027
TTAAGTGCTG | 1.02 ± 0.036
GTGTTTACTT | 1.01 ± 0.021
TTTAGTGGGT | 0.984 ± 0.026
GAATCCGCCC | 2.85 ± 0.74
AGAAATATAT | 1.23 ± 0.35
TTTGGGCCAT | 1.04 ± 0.12
AGATTTATCC | 0.977 ± 0.065
TAGCAGGTGG | 1.15 ± 0.14
TCGAGTTTTT | 0.996 ± 0.02
TTAGGGACAA | 1.039 ± 0.0064

Sequence | switch fluorescence ratio
CATAGGTAAG | 0.9837 ± 0.0022
ATGTGTCTGC | 1.04 ± 0.035
TTCAATAGGG | 1.02 ± 0.036
TTTGCGCGTT | 0.985 ± 0.018
ACACCGGGTC | 1.21 ± 0.071
TATCAGAGGG | 1.02 ± 0.023
TAGTCTGTGG | 0.993 ± 0.033
TATGTGACGA | 1 ± 0.026
CTCGGGGGGT | 1.01 ± 0.014
TGCTCGGGGA | 1.021 ± 0.0023
GAGGGGGACG | 1 ± 0.14
GGGTTAATGA | 1 ± 0.048
ATCAAAGTTT | 0.994 ± 0.042
ATGTGTGGTT | 1.12 ± 0.15
TATTAGTATG | 0.991 ± 0.047
TTTAGACA | 1.02 ± 0.053
AATTAGTTGT | 0.9918 ± 0.0084
GATAAAAGGA | 1.002 ± 0.0063
TTGATGGTTG | 0.964 ± 0.021
CAATGATAGG | 0.992 ± 0.017
GTTGTGTGTT | 0.975 ± 0.016
GTAAGGAAGG | 0.989 ± 0.012
GGGTTTCGGG | 0.9779 ± 0.0092
ATAGAAGAG | 0.978 ± 0.017
TATGGGTCTC | 0.973 ± 0.049

Sequence | switch fluorescence ratio
TTAATAGTGA | 0.973 ± 0.021
GGTACTACCG | 1.03 ± 0.044
CTTTGGGGGA | 0.983 ± 0.023
CTTGGGAGGG | 0.992 ± 0.029
CGGGTCTGCT | 0.985 ± 0.022
GGATTTTAAA | 1 ± 0.022
GGAACGTGTT | 1.004 ± 0.0097
GTGGGCCGCG | 0.979 ± 0.029
TACACCTTTC | 2.3 ± 0.073
ATGGGATAAG | 0.998 ± 0.029
ACAACTTTTT | 1.02 ± 0.044
CTTAATAGAC | 2.44 ± 1.9
ATAGGTTGGG | 0.996 ± 0.03
TAAAAAAGTG | 1.02 ± 0.02
AGGGAAGTTT | 1.03 ± 0.084
GGGGTTAAGA | 1.01 ± 0.08
GGCTGGCGGC | 0.984 ± 0.026
CTCTGGACTA | 1.11 ± 0.017
TCAAAGCGTT | 0.986 ± 0.031
AAGTGGGAAC | 1.02 ± 0.016
TGAAAAGGTA | 1 ± 0.013
CCTTTTAGGT | 0.9846 ± 0.0043
TCTCACGATT | 1.022 ± 0.0061
AGTATCATTT | 0.952 ± 0.02
GGAATAGGGA | 0.982 ± 0.052

Sequence | switch fluorescence ratio
TGCGTTCTGG | 1.048 ± 0.007
ACTGGGAAG | 1.05 ± 0.064
TTCTTAAATT | 0.981 ± 0.019
TTGAGTTGCG | 0.986 ± 0.028
TGTGTTAGAA | 1.01 ± 0.015
GCCGAGAAGT | 0.985 ± 0.027
TAGCCGGGAC | 1.25 ± 0.26
TAAAGGGCT | 1.001 ± 0.0055
TGGTTGCTAA | 1.01 ± 0.02
ATGATCAGCT | 0.9824 ± 0.0077
TAGAAAGATT | 1.02 ± 0.016
ATGTTGGTGT | 0.991 ± 0.045
TGGTGTGGGG | 0.993 ± 0.021
CGGGGAGTGC | 1.01 ± 0.061
TTGGTCGGG | 0.98 ± 0.044
CAGCATTGGG | 0.978 ± 0.038
GGTCGGCTAG | 0.9954 ± 0.0083
CGGGGGTTGG | 0.999 ± 0.025
ATTTTTAGAG | 1.01 ± 0.023
CCTGTTAGCT | 1.15 ± 0.076
GGGGAATAGG | 0.9962 ± 0.0084
CAGGTATTGA | 1 ± 0.03
TTGGAAATTG | 1.01 ± 0.019
TTGCGCGGGG | 1.02 ± 0.077
TAAATGTCTT | 1.025 ± 0.0077
